B1: I402T: ApPPO1 (SEQ ID NO: 1) variant (protein)
chain: MPFTHLKPLNRLLGSPRARHPHVAPQAVSVTNTSTTRPGGRSSAPGIPGDAEYDVVIVGAGISGLTTAQALAKQYSDAVPRLLVTEARDCVGGNIITRRDGGYQWEEGPNSFQPSDAVLRAAVDAGVADRLVLGDPKAPRYVYWGGRLRATPSGPDVLTFDLLSLWGKLRAGLGAAGFKAPLPEREESVKEFVTRNLGEEVFQRLIEPFCSGVYAGDPAKLSMKAAFGKVYDLEKGGGSIVGGVLALMKARKQKPPEPRPADLPPKPKGQTVGSFDKGLVTLPSAIAEELGDRVVTGWKLESIDRSGDRFQLTYDTPQGRKKVSARSVALTVPAYTAASLLESRFPKLGKALSSIYYPPVASVALSYPETAILPERLGSDGHLAGFGQLHPRTQGVTTLGTTYASSLFPGRVPEGKVLLLSYFGGATNTRVATMPHGEIVSQVDKDLRKMLIRSDAESPHTVNVTVWPRAIPQFNVGHTDLIQEAKDDLASQGWQGLHLGGNYVAGVALGKCMEAGYKQAAELASHVKSLAT
modifications: Synthetic (Protoporphyrinogen IX oxidase (ApPPO1) of Auxenochlorella protothecoides)
B2: V360M + Y422M: ApPPO1 (SEQ ID NO: 1) variant (protein)
chain: MPFTHLKPLNRLLGSPRARHPHVAPQAVSVTNTSTTRPGGRSSAPGIPGDAEYDVVIVGAGISGLTTAQALAKQYSDAVPRLLVTEARDCVGGNIITRRDGGYQWEEGPNSFQPSDAVLRAAVDAGVADRLVLGDPKAPRYVYWGGRLRATPSGPDVLTFDLLSLWGKLRAGLGAAGFKAPLPEREESVKEFVTRNLGEEVFQRLIEPFCSGVYAGDPAKLSMKAAFGKVYDLEKGGGSIVGGVLALMKARKQKPPEPRPADLPPKPKGQTVGSFDKGLVTLPSAIAEELGDRVVTGWKLESIDRSGDRFQLTYDTPQGRKKVSARSVALTVPAYTAASLLESRFPKLGKALSSIYYPPMASVALSYPETAILPERLGSDGHLAGFGQLHPRTQGVTTLGTIYASSLFPGRVPEGKVLLLSMFGGATNTRVATMPHGEIVSQVDKDLRKMLIRSDAESPHTVNVTVWPRAIPQFNVGHTDLIQEAKDDLASQGWQGLHLGGNYVAGVALGKCMEAGYKQAAELASHVKSLAT
modifications: Synthetic (Protoporphyrinogen IX oxidase (ApPPO1) of Auxenochlorella protothecoides)
B3: Y422M: ApPPO1 (SEQ ID NO: 1) variant (protein)
chain: MPFTHLKPLNRLLGSPRARHPHVAPQAVSVTNTSTTRPGGRSSAPGIPGDAEYDVVIVGAGISGLTTAQALAKQYSDAVPRLLVTEARDCVGGNIITRRDGGYQWEEGPNSFQPSDAVLRAAVDAGVADRLVLGDPKAPRYVYWGGRLRATPSGPDVLTFDLLSLWGKLRAGLGAAGFKAPLPEREESVKEFVTRNLGEEVFQRLIEPFCSGVYAGDPAKLSMKAAFGKVYDLEKGGGSIVGGVLALMKARKQKPPEPRPADLPPKPKGQTVGSFDKGLVTLPSAIAEELGDRVVTGWKLESIDRSGDRFQLTYDTPQGRKKVSARSVALTVPAYTAASLLESRFPKLGKALSSIYYPPVASVALSYPETAILPERLGSDGHLAGFGQLHPRTQGVTTLGTIYASSLFPGRVPEGKVLLLSMFGGATNTRVATMPHGEIVSQVDKDLRKMLIRSDAESPHTVNVTVWPRAIPQFNVGHTDLIQEAKDDLASQGWQGLHLGGNYVAGVALGKCMEAGYKQAAELASHVKSLAT
modifications: Synthetic (Protoporphyrinogen IX oxidase (ApPPO1) of Auxenochlorella protothecoides)
B4: Y422I: ApPPO1 (SEQ ID NO: 1) variant (protein)
chain: MPFTHLKPLNRLLGSPRARHPHVAPQAVSVTNTSTTRPGGRSSAPGIPGDAEYDVVIVGAGISGLTTAQALAKQYSDAVPRLLVTEARDCVGGNIITRRDGGYQWEEGPNSFQPSDAVLRAAVDAGVADRLVLGDPKAPRYVYWGGRLRATPSGPDVLTFDLLSLWGKLRAGLGAAGFKAPLPEREESVKEFVTRNLGEEVFQRLIEPFCSGVYAGDPAKLSMKAAFGKVYDLEKGGGSIVGGVLALMKARKQKPPEPRPADLPPKPKGQTVGSFDKGLVTLPSAIAEELGDRVVTGWKLESIDRSGDRFQLTYDTPQGRKKVSARSVALTVPAYTAASLLESRFPKLGKALSSIYYPPVASVALSYPETAILPERLGSDGHLAGFGQLHPRTQGVTTLGTIYASSLFPGRVPEGKVLLLSIFGGATNTRVATMPHGEIVSQVDKDLRKMLIRSDAESPHTVNVTVWPRAIPQFNVGHTDLIQEAKDDLASQGWQGLHLGGNYVAGVALGKCMEAGYKQAAELASHVKSLAT
modifications: Synthetic (Protoporphyrinogen IX oxidase (ApPPO1) of Auxenochlorella protothecoides)
B5: F386V + Y422M: ApPPO1 (SEQ ID NO: 1) variant (protein)
chain: MPFTHLKPLNRLLGSPRARHPHVAPQAVSVTNTSTTRPGGRSSAPGIPGDAEYDVVIVGAGISGLTTAQALAKQYSDAVPRLLVTEARDCVGGNIITRRDGGYQWEEGPNSFQPSDAVLRAAVDAGVADRLVLGDPKAPRYVYWGGRLRATPSGPDVLTFDLLSLWGKLRAGLGAAGFKAPLPEREESVKEFVTRNLGEEVFQRLIEPFCSGVYAGDPAKLSMKAAFGKVYDLEKGGGSIVGGVLALMKARKQKPPEPRPADLPPKPKGQTVGSFDKGLVTLPSAIAEELGDRVVTGWKLESIDRSGDRFQLTYDTPQGRKKVSARSVALTVPAYTAASLLESRFPKLGKALSSIYYPPVASVALSYPETAILPERLGSDGHLAGVGQLHPRTQGVTTLGTIYASSLFPGRVPEGKVLLLSMFGGATNTRVATMPHGEIVSQVDKDLRKMLIRSDAESPHTVNVTVWPRAIPQFNVGHTDLIQEAKDDLASQGWQGLHLGGNYVAGVALGKCMEAGYKQAAELASHVKSLAT
modifications: Synthetic (Protoporphyrinogen IX oxidase (ApPPO1) of Auxenochlorella protothecoides)
B6: F209A + Y422M: ApPPO1 (SEQ ID NO: 1) variant (protein)
chain: MPFTHLKPLNRLLGSPRARHPHVAPQAVSVTNTSTTRPGGRSSAPGIPGDAEYDVVIVGAGISGLTTAQALAKQYSDAVPRLLVTEARDCVGGNIITRRDGGYQWEEGPNSFQPSDAVLRAAVDAGVADRLVLGDPKAPRYVYWGGRLRATPSGPDVLTFDLLSLWGKLRAGLGAAGFKAPLPEREESVKEFVTRNLGEEVFQRLIEPACSGVYAGDPAKLSMKAAFGKVYDLEKGGGSIVGGVLALMKARKQKPPEPRPADLPPKPKGQTVGSFDKGLVTLPSAIAEELGDRVVTGWKLESIDRSGDRFQLTYDTPQGRKKVSARSVALTVPAYTAASLLESRFPKLGKALSSIYYPPVASVALSYPETAILPERLGSDGHLAGFGQLHPRTQGVTTLGTIYASSLFPGRVPEGKVLLLSMFGGATNTRVATMPHGEIVSQVDKDLRKMLIRSDAESPHTVNVTVWPRAIPQFNVGHTDLIQEAKDDLASQGWQGLHLGGNYVAGVALGKCMEAGYKQAAELASHVKSLAT
modifications: Synthetic (Protoporphyrinogen IX oxidase (ApPPO1) of Auxenochlorella protothecoides)
B7: Y422T: ApPPO1 (SEQ ID NO: 1) variant (protein)
chain: MPFTHLKPLNRLLGSPRARHPHVAPQAVSVTNTSTTRPGGRSSAPGIPGDAEYDVVIVGAGISGLTTAQALAKQYSDAVPRLLVTEARDCVGGNIITRRDGGYQWEEGPNSFQPSDAVLRAAVDAGVADRLVLGDPKAPRYVYWGGRLRATPSGPDVLTFDLLSLWGKLRAGLGAAGFKAPLPEREESVKEFVTRNLGEEVFQRLIEPFCSGVYAGDPAKLSMKAAFGKVYDLEKGGGSIVGGVLALMKARKQKPPEPRPADLPPKPKGQTVGSFDKGLVTLPSAIAEELGDRVVTGWKLESIDRSGDRFQLTYDTPQGRKKVSARSVALTVPAYTAASLLESRFPKLGKALSSIYYPPVASVALSYPETAILPERLGSDGHLAGFGQLHPRTQGVTTLGTIYASSLFPGRVPEGKVLLLSTFGGATNTRVATMPHGEIVSQVDKDLRKMLIRSDAESPHTVNVTVWPRAIPQFNVGHTDLIQEAKDDLASQGWQGLHLGGNYVAGVALGKCMEAGYKQAAELASHVKSLAT
modifications: Synthetic (Protoporphyrinogen IX oxidase (ApPPO1) of Auxenochlorella protothecoides)

Test system: ApPPO1
Test: PPO enzyme activity of purified MBP-fused ApPPO1 wild type and variants
Type: biochemical, Auxenochlorella protothecoides
Details: PPO enzyme activity relative to ApPPO1 wild type; MBP-fused protein
Description: Thus, PPO proteins of wild type and variants were expressed as fused to MBP and were used for experiments.
The following process for purification of PPO protein was performed in a 4° C. cold room. […] The column was washed with 3 column volumes of buffer and the presence of protein in the washing solution was examined. When the protein was no longer detected, the washing procedure was terminated. Then, the MBP-PPO protein was eluted with approximately 2 column volumes of buffer containing 20 mM maltose. The protein concentration of each eluent was determined and the elution was stopped when the protein was no longer detected. Ten microliter of each fraction was investigated for protein quantification and SDS-PAGE analysis. The highly pure fractions of PPO protein variants were used for the enzyme assay.
Since protoporphyrinogen IX, a substrate of PPO protein, was not commercially available, it was chemically synthesized in the laboratory. Overall process was performed in dark under nitrogen stream. […] of protoporphyrin IX was dissolved in 20 ml of 20% (v/v) EtOH, and stirred under dark condition for 30 minutes. The obtained protoporphyrin IX solution was put into a 15 ml screw tube in an amount of 800 μl, and flushed with nitrogen gas for 5 minutes. To this, 1.5 g of sodium amalgam was added and vigorously shaken for 2 minutes. The lid was opened to exhaust hydrogen gas in the tube. Thereafter, the lid was closed and incubated for 3 minutes. The protoporphyrinogen IX solution was filtered using syringe and cellulose membrane filter. To 600 μl of the obtained protoporphyrinogen IX solution, approximately 300 μl of 2M MOPS [3-(N-morpholino) propanesulfonic acid] was added to adjust pH to 8.0. To determine the enzyme activity of PPO protein, a reaction mixture was prepared with the following composition (based on 10 ml): 50 mM Tris-Cl (pH 8.0); 50 mM NaCl; 0.04% (v/v) Tween 20; 40 mM glucose (0.072 g); 5 units glucose oxidase (16.6 mg); and 10 units catalase (1 μl).
Hundred and eighty microliters of a reaction mixture […] were placed in 96 well plates and 20 μl of purified PPO proteins were added. After 50 μl of the mineral oil was layered, the reaction was initiated by adding the substrate, protoporphyrinogen IX solution, to a final concentration of 50 μM. The reaction proceeded at room temperature for 30 min and the fluorescence of protoporphyrin IX was measured using Microplate reader (Sense, Hidex) (excitation: 405 nm; emission: 633 nm). To calculate the PPO enzyme activity, the protoporphyrinogen IX solution was kept open in the air overnight to oxidize the solution. To this, 2.7 N HCl was added, and the absorbance at 408 nm was measured. A standard curve was generated using standard protoporphyrin IX, and PPO activity was measured by calibration of protoporphyrin IX using the standard curve of protoporphyrin IX.
Activities of variants were presented relatively compared to that of wild type.

First: B1
Second: B2
The “Activity (%)” value of the first is higher: 16% for the first, 8% for the second.

Going from B3 to B4, the “Activity (%)” value falls from 93% to 91%.

First: B5
Second: B6
The “Activity (%)” value of the first is higher: 65% for the first, 51% for the second.

B7 was tested, and the “Activity (%)” value was 84%.
